From patent US20250275560A1, “PROCESS OF MAKING GINGEROL COMPOUNDS AND THEIR USE AS FLAVOR MODIFIERS” (Firmenich SA, priority 2021, published 2025)

Assays:
[1] = Determination of the enzyme activities for ethyl-2-oxo-4-phenylbutyrate with enzyme lysate (NADH absorption decrease at 340 nm); type: biochemical; settings: enzyme lysate of recombinant RB791 cells, per wet cell mass; room temperature, pH 7.0, 0.3 mM NADH, 1 mM ethyl-2-oxo-4-phenylbutyrate; mean of at least three measurements
Protocol: Enzyme lysates (10% [w/v] and 20% [w/v] wet cell mass) were used to determine the enzyme activities. Enzyme lysates were prepared in TEA buffer (100 mM triethanolamine pH 7.0, 2 mM MgCl2). 0.1 g or 0.2 g wet cell mass was completely resuspended in 1 ml TEA buffer. The cells were disrupted in 2 ml reaction vessels by adding a 0.5 ml corresponding volume of glass beads at 24 Hz for 10 minutes in a vibrating mill (Retsch, MM200). The cell lysate was then sedimented in a tabletop centrifuge at 7500×g for 60 seconds. The cell-free supernatant, the enzyme lysate, was used immediately to determine the activity.
The activity was measured at room temperature in a reaction volume of 1 ml in a semi-micro cuvette (layer thickness 1 cm). The reaction mixture was composed as follows: 100 mM triethanolamine pH 7.0, 2 mM MgCl2, 0.3 mM NADH and 1 mM ethyl-2-oxo-4-phenylbutyrate (CAS No. 64920 29 2)
The reaction was started by adding 15 μL or 25 μL of enzyme lysate diluted in TEA buffer. The individual dilution was chosen for each enzyme lysate in such a way that a linear decrease in absorption at 340 nm could be recorded over a period of 30 seconds (UV-Vis spectrophotometer, Shimadzu). […] Each measurement was carried out at least three times and the mean values were determined. […] (SEQ ID NO: 1) or Weizmannia coagulans (SEQ ID NO: 3), respectively, enzyme activities of 1825 U/g and 71 U/g were determined.

[2] = Characterization of oxidoreductases with regard to reduction of [6]-gingerol to the (3R,5S)-alcohol (HPLC); type: biochemical; settings: recombinant E. coli enzyme suspension, NADH, 2-propanol, 25° C., 24 hours; for Ratio: 3S,5S/3R,5S (%) - 3R,5S share / Ratio: 3S,5S/3R,5S (%) - 3S,5S share: 2 mg [6]-gingerol; for Conversion (%): conversion of [6]-gingerol
Protocol: The oxidoreductases with the polypeptide sequences SEQ ID NO: 1 and SEQ ID NO: 3 were examined by the following method to determine the conversion rate and diasterioselectivity by reducing [6]-gingerol to the corresponding (3R, 5S)-alcohol:
Recombinant Escherichia coli cells which carry the genes of the oxidoreductases SEQ ID NO: 1 or SEQ ID NO: 3 were cultivated as described in Example 2. To produce an enzyme suspension, 1 g wet cells were completely resuspended with TEA buffer (100 mM triethanolamine pH 7.0, 2 mM MgCl2) in a total volume of 5 mL and then mixed until homogeneous by adding 5 mL glycerol solution (80% [v/v] in TEA buffer). In the reaction setup, 2 mg [6]-gingerol per […] of this enzyme suspension were added to 160 μL KPP buffer (100 mM potassium phosphate buffer, pH 7.5, 1 mM MgCl2), together with 0.0035 g NADH and 20 μL 2-propanol. After incubating the samples at 25° C. and 1200 rpm for 24 hours, the reaction solutions were extracted with 1 ml each of […] and centrifuged. 250 μL of the extract were removed and dried. Then 1 ml acetonitrile was added and analyzed by means of HPLC. A Luna PFP (2) column (150×3 mm) from Phenomenex (Germany) was used for detecting the conversion of [6]-gingerol and the diastereomers formed.

| Molecule | enzyme activity [1] [U/g] | Ratio: 3S,5S/3R,5S (%) - 3R,5S share [2] [%] | Ratio: 3S,5S/3R,5S (%) - 3S,5S share [2] [%] | Conversion (%) [2] [%] |
| --- | --- | --- | --- | --- |
| SEQ ID NO: 1: KRED polypeptide isolated from Bacillus sp, 248 amino acids, expressed recombinantly in Escherichia coli (protein, listed as Bacillus sp.) MSGRVAVITGAGSGIGRETCLTFARKGEKVVVADINEEKGLETTELVKAEGGEAVFVNTDVSKFEEVEALVDQAVETYGSIDIMFNNAGIGKMGHVLSLNIEDYLHVIDVNQHGVAYGIIAAGRKMRDLDIKGVIINSASVFGYLANFGTFPYQASKGAVRMMTQNAALELSQYGIRVVGIAPGSVDTSIIQAYKDAGMTQKMKEQQMRKELIRPEAIANAVYLLTLEEADVINGSVVMLDDGYASFK | 1825 | 95.5 | 4.5 | >71 |
| SEQ ID NO: 3: KRED polypeptide isolated from Weizmannia coagulans, 248 amino acids, expressed recombinantly in Escherichia coli (protein, Weizmannia coagulans, KRED polypeptide isolated from Weizmannia coagulans, 248 amino acids, expressed recombinantly in Escherichia coli) MSGRVAVITGAGSGIGWETSLTFARKGDSVVVADIDEEKGLETVELIKQEGGDAVFAKTDVSKFEEVESLVNQAVEIYGTIDVMFNNAGIGTLGHILSKKIEDYLRVIDVNQHGVAYGIIAAGRKMRELDVKGVIINTASVFGYLANFGTFPYQAAKGAVRMMTQNAALELAQYGIRVVGIAPGCVDTPIIQAYKDAGMTQKMTEQQMRKKLIRPEAIANAVYLLTLEEADAINGSVVMLDDGYASFK | 71 | 98.6 | 1.4 | >84 |
